The text below walks through data of article PMC10934500, “Exploring the Anti-Diabetic Potential of Quercetagitrin through Dual Inhibition of PTPN6 and PTPN9” (Nutrients, 2024).

This data set has as its system Cc1cc(=O)oc2c(F)c(OP(=O)(O)O)c(F)cc12. The experiment in a line: Michaelis-Menten kinetics (KM) with purified enzyme, fluorescence. The data set is classed as biochemical, Homo sapiens.

For orientation: Km means the concentration of substrate that gives half-maximal velocity. Broadly, the Vmax is the top rate of the reaction or transport when substrate is in excess. In general, kcat refers to the number of substrate molecules converted per active site and unit of time at saturation. For orientation: kcat/Km means the second-order rate constant that governs catalysis at low substrate concentration.

In the case of PTPN6 (Homo sapiens), the Km amounted to 187.5 µM, the maximal velocity (Vmax) came to 10.8 µM/min, the kcat worked out at 30 s⁻¹ and the kcat/Km was 162000 M⁻¹ s⁻¹.
